{"source": "patent US7288523B2", "about": "“Peptide binding the KLVFF-sequence of amyloid-β” (Neurochem (International) Limited, priority 1995, dated 2007)", "key": {"[1]": {"details": "literature; cited from earlier work"}, "amyloid fibril formation": {"target": "amyloid fibril formation (Homo sapiens, UniProt P05067)", "details": "literature; cited from earlier work"}, "Aβ-1-40 [2]": {"target": "T1, Aβ-1-40 (Homo sapiens, UniProt P05067)", "T1 construct": "Incubation of synthetic Aβ-1-40 at 100 μM for 48 h; host or cells: synthetic peptide (chemical synthesis)", "experiment": "Aβ-1-40 polymerization alone or coincubated with peptide, electron microscopy", "format": "biochemical", "procedure": "Aβ-1-40 was incubated at 100 μM in TBS for 48 h at 37° C. in a shaking water bath, either alone or together with 100 μM AcKLVFFNH2. The polymerized material was adsorbed to formvar-coated grids and negatively stained with 2% uranyl acetate in water."}, "[3]": {"experiment": "Aggregation and fibril formation of Aβ-1-28 peptides (RPLC of supernatant, electron microscopy of pellet)", "format": "physicochemical", "details": "200 μM, 24 h, 37° C., TBS", "procedure": "Aβ-1-28 (FIG. 3A) and AP-1-28^AAVFA (FIG. 3B) were incubated at 200 μM in TBS for 24 h at 37° C. in a shaking water bath. After incubation, the tubes were centrifuged at 20,000 g for 20 min and the content of non-aggregated peptide in the supernatants (FIG. 3A, B) was analyzed using an established C4 RPLC system (12) whereas the aggregated peptides in the pellets were analyzed by electron microscopy after adsorption to formvar-coated grids and negative staining with 2% uranyl acetate in water."}, "labelled KLVFF": {"target": "T2, labelled KLVFF (Homo sapiens, UniProt P05067)", "T2 construct": "with labelled KLVFF", "experiment": "Screening of combinatorial D-amino acid pentapeptide libraries with labelled KLVFF", "format": "binding", "from_the_text": "(§1) By screening combinatorial pentapeptide libraries exclusively composed of D-amino acids (lowercase) with labelled KLVFF, several ligands with a motif containing phenylalanine (f) in the second and leucine (l) in the third position were identified (e.g. lflrr). By using a short peptide in the screening, known to bind to a region in Aβ critical for its polymerization (i.e. KLVFF), the risk of identifying D-pentapeptides that interact with nonrelevant regions in Aβ (N- or C-terminal to Aβ-16-20) was eliminated. […] Since peptides built up of D-amino acids are resistant to proteolytic degradation, these ligands may be beneficial for inhibition of amyloidogenesis in vivo."}, "^125I-labelled Aβ-1-40": {"target": "T3, ^125I-labelled Aβ-1-40 (Homo sapiens, UniProt P05067)", "T3 construct": "incubated in the presence of 20 μM ^125I-labelled Aβ-1-40; host or cells: synthetic peptide (chemical synthesis)", "experiment": "SPOT filter-bound peptides incubated with radioactive Aβ-1-40, autoradiography and densitometry", "format": "binding", "details": "20 μM ^125I-labelled Aβ-1-40, 20° C., 12 h, TBS pH 7.3; semiquantitative", "from_the_text": "a) Ten-mers corresponding to consecutive sequences of Aβ-1-40 were synthesized on a filter matrix using the SPOT-technique (the peptides were synthesized essentially as described by Frank [R. Frank, Tetrahedron 42, 9217-9232 (1992)]. Briefly, a spacer corresponding to 2 molecules of β-alanine was coupled to cellulose membranes (Whatman lChr). The peptides were synthesized on these derivatized membranes using Fmoc protected and pentafluorophenyl-activated amino acids (AMS Biotechnology) dissolved in N-methylpyrrolidone. Coupling efficiency was monitored using bromphenol blue.). We synthesized the thirty-one possible 10-mers of the Aβ-1-40. Peptide no. 1 corresponds to amino acids 1-10, peptide no. 2 to amino acids 2-11 etc. The filter-bound peptides were incubated with radioactive Aβ-1-40. Following washing of the filter in high-salt buffer, bound radioactivity was estimated by autoradiography and densitometry. […] Radioactivity bound to the filter was visualized by autoradiography and quantitated using a densitometer.\nb) Peptide no. 11 ([…]) and indicated N- and C-terminal truncated fragments were synthesized using the same technique as described above and analyzed for affinity to ^125I-labelled Aβ-1-40.\nd) Each amino acid residue in KLVFF was systematically replaced with A and analyzed for affinity to ^125I-labelled Aβ-1-40. […]"}, "Aβ-1-40 [4]": {"target": "T1, Aβ-1-40", "experiment": "Surface plasmon resonance spectroscopy (BIAcore 2000), Aβ-1-40 over immobilized peptide", "format": "binding", "details": "chip derivatized with KLVFF-βA-βA-C; three Aβ-1-40 concentrations, pH 7.4", "procedure": "c) Sensorgram from BIAcore 2000. Aβ-1-40, at three different concentrations in running buffer, pH 7.4. Aβ-1-40 was injected during 10 minutes over a sensor-chip derivatized with the peptide KLVFF-βA-βA-C.\nc) The interaction between soluble Aβ-1-40 and immobilized KLVFF was monitored in real-time (FIG. 2D) using surface plasmon resonance spectroscopy (BIAcore, Pharmacia) (BIAcore 2000 (Pharmacia Biosensor AB, Sweden) was used for real-time studies based on surface plasmon resonance spectroscopy. The peptide was immobilized using thiol coupling. The running buffer consisted of 10 mM HEPES, 0.15 M NaCl, 3.4 mM EDTA and 0.05% surfactant P20 as described. [U. Jansson, M. Malmqvist, Adv. Biosens. 2, 291-336 (1992)]).\nd) AA served as linker between the active peptide and the chip (upper trace) and cysteine alone, indicating non-specific binding, (C) as control (lower trace). Arrows indicate start and stop of injection (FIG. 2D)."}, "Aβ (Aβ-16-20)": {"target": "T4, Aβ (Aβ-16-20) (Homo sapiens, UniProt P05067)", "T4 construct": "It is a 40 to 42 amino acids long proteolytic fragment of the Alzheimer amyloid precursor protein (APP)", "experiment": "Binding to Aβ (Example 5)", "from_the_text": "as §1"}, "Aβ": {"target": "T5, Aβ (Homo sapiens, UniProt P05067)", "T5 construct": "It is a 40 to 42 amino acids long proteolytic fragment of the Alzheimer amyloid precursor protein (APP)", "experiment": "Inhibition of amyloid fibril formation (Example 5)", "format": "biochemical"}, "[5]": {"details": "WO 95/08999; cited from earlier work"}}, "data": [{"compound": "p3: fragment of Aβ termed p3 and corresponding to Aβ-17-40 or Aβ-17-42 (LVFFAEDVGSNKGAIIGLMVGGVV; P3(40); UniProt P05067 688-711, looked up)", "values": [{"measurement": "formation of amyloid fibrils", "setting": "[1]", "result": "not capable of forming amyloid in vitro or in vivo"}]}, {"compound": "Nc1c(/N=N/c2ccc(-c3ccc(/N=N/c4cc(S(=O)(=O)O)c5ccccc5c4N)cc3)cc2)cc(S(=O)(=O)O)c2ccccc12", "note": "[Congo red]", "values": [{"measurement": "inhibition of amyloid fibril formation", "setting": "amyloid fibril formation", "result": "may have such properties"}]}, {"compound": "AcQKLVFFNH2", "values": [{"measurement": "Aβ-1-40 amyloid fibril formation on coincubation with peptide", "setting": "Aβ-1-40 [2]; 100 μM Aβ-1-40 with equimolar peptide, 48 h, 37° C.", "result": "this type of fibrils did not form"}, {"measurement": "aggregates formed by the peptide itself", "setting": "Aβ-1-40 [2]; peptide alone, electron microscopy", "result": "small rod-like aggregates"}]}, {"compound": "Aβ-1-28: a well-studied Aβ fragment that readily forms amyloid fibrils [reference compound]", "values": [{"measurement": "aggregation (non-aggregated peptide in supernatant)", "setting": "[3]", "result": "aggregated"}, {"measurement": "fibril formation (electron microscopy)", "setting": "[3]", "result": "formed large fibril bundles"}, {"measurement": "formation of amyloid fibrils", "setting": "[1]", "result": "readily forms amyloid fibrils"}]}, {"compound": "Aβ-1-28^AAVFA: mutated Aβ-1-28 where the KLVFF sequence was substituted with AAVFA", "values": [{"measurement": "aggregation (non-aggregated peptide in supernatant)", "setting": "[3]", "result": "almost completely failed to aggregate"}, {"measurement": "fibril formation (electron microscopy)", "setting": "[3]", "result": "only formed a few dispersed fibrils"}, {"measurement": "fibril formation (electron microscopy)", "setting": "[3]; listed as alanine-substituted Aβ-1-28", "result": "does not form fibrils"}]}, {"compound": "lflrr", "values": [{"measurement": "identified as ligand of labelled KLVFF", "setting": "labelled KLVFF", "result": "identified"}]}, {"compound": "Lys-Leu-Val-Phe-Phe [KLVFF]", "values": [{"measurement": "binding of radioactive Aβ-1-40 to filter-bound peptide", "setting": "^125I-labelled Aβ-1-40", "result": "high Aβ binding capacity"}, {"measurement": "binding of soluble Aβ-1-40 to immobilized peptide (sensorgram)", "setting": "Aβ-1-40 [4]", "result": "not saturable"}, {"measurement": "binding to Aβ", "setting": "Aβ (Aβ-16-20)", "result": "binds stereo specifically"}, {"measurement": "inhibition of amyloid fibril formation", "setting": "Aβ", "result": "inhibit amyloid fibril formation"}, {"measurement": "amnestic or memory enhancing effect", "setting": "[5]", "result": "neither significantly amnestic nor memory enhancing"}]}]}
